Results from patent publication US20140087995A1 (published 2014).
Numbered stars: 1 amine (or outer) side, 2 acyl side, 3 side chain; on linkers, the order of the positions; unused ones are H or OH. Bridge positions count the residues as written; N and C are the ends. Side chains are listed from the residue outwards. Ends that are not written are not given here. * marks the point of attachment. C20 diacid = O=C(O)CCCCCCCCCCCCCCCCCCC(=O)*; γGlu = O=C(O)[C@H](CCC(=O)[*:2])N[*:1]

T1: human amylin receptor (Amylin 3(a) receptor: human calcitonin receptor co-expressed with RAMP-3) (human, UniProt P30988 25-474; O60896 24-148, limits assumed)
T1 construct: whole, on cells; Used as cell membranes prepared from the Amylin 3(a)/CRE-luc BHK cells (Assay V); the complex is called the human amylin receptor; also called hAmylin-R; hAmylinR
T1 sequence (looked up) 1: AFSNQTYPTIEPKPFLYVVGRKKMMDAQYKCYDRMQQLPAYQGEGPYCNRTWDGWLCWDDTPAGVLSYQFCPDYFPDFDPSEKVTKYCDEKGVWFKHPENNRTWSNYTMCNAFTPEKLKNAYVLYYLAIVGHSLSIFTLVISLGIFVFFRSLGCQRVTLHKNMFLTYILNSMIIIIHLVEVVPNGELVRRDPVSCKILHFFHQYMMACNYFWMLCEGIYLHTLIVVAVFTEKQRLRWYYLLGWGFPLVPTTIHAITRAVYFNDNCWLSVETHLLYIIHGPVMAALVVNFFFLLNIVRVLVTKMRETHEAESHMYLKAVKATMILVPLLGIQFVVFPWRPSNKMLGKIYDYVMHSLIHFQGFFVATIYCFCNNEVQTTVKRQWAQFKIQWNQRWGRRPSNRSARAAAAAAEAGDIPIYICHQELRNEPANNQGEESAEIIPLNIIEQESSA
T1 sequence (looked up) 2: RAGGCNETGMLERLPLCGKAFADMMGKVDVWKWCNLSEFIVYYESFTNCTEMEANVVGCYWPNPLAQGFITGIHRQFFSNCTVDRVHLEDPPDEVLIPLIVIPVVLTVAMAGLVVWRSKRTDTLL

T2: human amylin receptor (human, UniProt P30988 25-474; O60896 24-148, limits assumed)
T2 construct: whole, on cells; Used as cell membranes prepared from the Amylin 3(a)/CRE-luc BHK cells (Assay V); also called hAmylin-R; hAmylinR
T2 sequence (looked up) 1: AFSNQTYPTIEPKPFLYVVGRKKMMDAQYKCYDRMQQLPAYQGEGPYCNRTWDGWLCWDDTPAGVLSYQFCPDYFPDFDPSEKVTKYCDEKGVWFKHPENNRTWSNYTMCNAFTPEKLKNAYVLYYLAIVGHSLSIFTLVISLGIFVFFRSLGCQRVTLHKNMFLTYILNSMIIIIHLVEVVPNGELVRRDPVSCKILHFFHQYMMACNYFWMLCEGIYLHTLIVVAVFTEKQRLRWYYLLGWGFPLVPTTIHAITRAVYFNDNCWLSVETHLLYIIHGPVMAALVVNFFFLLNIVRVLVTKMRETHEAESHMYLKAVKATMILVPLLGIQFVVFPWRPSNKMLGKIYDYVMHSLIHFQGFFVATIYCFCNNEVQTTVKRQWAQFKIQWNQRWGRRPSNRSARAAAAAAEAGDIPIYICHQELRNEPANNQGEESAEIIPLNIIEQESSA
T2 sequence (looked up) 2: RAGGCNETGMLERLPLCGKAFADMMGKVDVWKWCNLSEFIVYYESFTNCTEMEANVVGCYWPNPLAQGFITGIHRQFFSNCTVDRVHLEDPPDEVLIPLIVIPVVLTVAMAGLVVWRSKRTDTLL


molecular target: T1, human amylin receptor (Amylin 3(a) …); experiment: SPA competition binding, displacement of 125I-rat amylin from membranes of BHK cells with human calcitonin receptor + RAMP-3 (Assay V)
Outline: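 Cell membranes were prepared by homogenisation in Na-HEPES/EDTA buffer, pH 7.4, and stored at −80° C. They were then coupled to SPA beads at 35 ng/μL final and exposed to compounds in assay buffer containing CaCl2, MgCl₂, OA and Tween20. After 120 min at 25° C, plates were counted and IC₅₀ derived.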

Binder | IC50
K([γGlu-C20 diacid])CNTATCATQRLAEFLRHSSPNFGAIPSSTNVGPETY-NH2 (disulfide 2-7; N-terminus assumed; SMILES CC[C@H](C)[C@H](NC(=O)[C@H](C)NC(=O)CNC(=O)[C@H](Cc1ccccc1)NC(=O)[C@H](CC(N)=O)NC(=O)[C@@H]1CCCN1C(=O)[C@H](CO)NC(=O)[C@H](CO)NC(=O)[C@H](Cc1c[nH]cn1)NC(=O)[C@H](CCCNC(=N)N)NC(=O)[C@H](CC(C)C)NC(=O)[C@H](Cc1ccccc1)NC(=O)[C@H](CCC(=O)O)NC(=O)[C@H](C)NC(=O)[C@H](CC(C)C)NC(=O)[C@H](CCCNC(=N)N)NC(=O)[C@H](CCC(N)=O)NC(=O)[C@@H](NC(=O)[C@H](C)NC(=O)[C@@H]1CSSC[C@H](NC(=O)[C@@H](N)CCCCNC(=O)CC[C@H](NC(=O)CCCCCCCCCCCCCCCCCCC(=O)O)C(=O)O)C(=O)N[C@@H](CC(N)=O)C(=O)N[C@@H]([C@@H](C)O)C(=O)N[C@@H](C)C(=O)N[C@@H]([C@@H](C)O)C(=O)N1)[C@@H](C)O)C(=O)N1CCC[C@H]1C(=O)N[C@@H](CO)C(=O)N[C@@H](CO)C(=O)N[C@H](C(=O)N[C@@H](CC(N)=O)C(=O)N[C@H](C(=O)NCC(=O)N1CCC[C@H]1C(=O)N[C@@H](CCC(=O)O)C(=O)N[C@H](C(=O)N[C@@H](Cc1ccc(O)cc1)C(N)=O)[C@@H](C)O)C(C)C)[C@@H](C)O, modifications are with respect to human amylin) | 140 pM
K([γGlu-γGlu-C20 diacid])CNTATCATQRLAEFLRHSSPNFGAILSSTPVGPETY-NH2 (disulfide 2-7 (inferred), modifications are with respect to human amylin) | 69 pM
K([γGlu-γGlu-C20 diacid])CNTATCATQRLAEFLRHSSNNPGAILSSTNVGPETY-NH2 (disulfide 2-7; N-terminus assumed; SMILES CC[C@H](C)[C@H](NC(=O)[C@H](C)NC(=O)CNC(=O)[C@@H]1CCCN1C(=O)[C@H](CC(N)=O)NC(=O)[C@H](CC(N)=O)NC(=O)[C@H](CO)NC(=O)[C@H](CO)NC(=O)[C@H](Cc1c[nH]cn1)NC(=O)[C@H](CCCNC(=N)N)NC(=O)[C@H](CC(C)C)NC(=O)[C@H](Cc1ccccc1)NC(=O)[C@H](CCC(=O)O)NC(=O)[C@H](C)NC(=O)[C@H](CC(C)C)NC(=O)[C@H](CCCNC(=N)N)NC(=O)[C@H](CCC(N)=O)NC(=O)[C@@H](NC(=O)[C@H](C)NC(=O)[C@@H]1CSSC[C@H](NC(=O)[C@@H](N)CCCCNC(=O)CC[C@H](NC(=O)CC[C@H](NC(=O)CCCCCCCCCCCCCCCCCCC(=O)O)C(=O)O)C(=O)O)C(=O)N[C@@H](CC(N)=O)C(=O)N[C@@H]([C@@H](C)O)C(=O)N[C@@H](C)C(=O)N[C@@H]([C@@H](C)O)C(=O)N1)[C@@H](C)O)C(=O)N[C@@H](CC(C)C)C(=O)N[C@@H](CO)C(=O)N[C@@H](CO)C(=O)N[C@H](C(=O)N[C@@H](CC(N)=O)C(=O)N[C@H](C(=O)NCC(=O)N1CCC[C@H]1C(=O)N[C@@H](CCC(=O)O)C(=O)N[C@H](C(=O)N[C@@H](Cc1ccc(O)cc1)C(N)=O)[C@@H](C)O)C(C)C)[C@@H](C)O, modifications are with respect to human amylin) | 1190 pM
K([γGlu-γGlu-C20 diacid])CNTATCATQRLASFLRHSSPNFGAIPSSTNVGPETY-NH2 (disulfide 2-7; N-terminus assumed; SMILES CC[C@H](C)[C@H](NC(=O)[C@H](C)NC(=O)CNC(=O)[C@H](Cc1ccccc1)NC(=O)[C@H](CC(N)=O)NC(=O)[C@@H]1CCCN1C(=O)[C@H](CO)NC(=O)[C@H](CO)NC(=O)[C@H](Cc1c[nH]cn1)NC(=O)[C@H](CCCNC(=N)N)NC(=O)[C@H](CC(C)C)NC(=O)[C@H](Cc1ccccc1)NC(=O)[C@H](CO)NC(=O)[C@H](C)NC(=O)[C@H](CC(C)C)NC(=O)[C@H](CCCNC(=N)N)NC(=O)[C@H](CCC(N)=O)NC(=O)[C@@H](NC(=O)[C@H](C)NC(=O)[C@@H]1CSSC[C@H](NC(=O)[C@@H](N)CCCCNC(=O)CC[C@H](NC(=O)CC[C@H](NC(=O)CCCCCCCCCCCCCCCCCCC(=O)O)C(=O)O)C(=O)O)C(=O)N[C@@H](CC(N)=O)C(=O)N[C@@H]([C@@H](C)O)C(=O)N[C@@H](C)C(=O)N[C@@H]([C@@H](C)O)C(=O)N1)[C@@H](C)O)C(=O)N1CCC[C@H]1C(=O)N[C@@H](CO)C(=O)N[C@@H](CO)C(=O)N[C@H](C(=O)N[C@@H](CC(N)=O)C(=O)N[C@H](C(=O)NCC(=O)N1CCC[C@H]1C(=O)N[C@@H](CCC(=O)O)C(=O)N[C@H](C(=O)N[C@@H](Cc1ccc(O)cc1)C(N)=O)[C@@H](C)O)C(C)C)[C@@H](C)O, modifications are with respect to human amylin; also called compound 120) | 76 pM

molecular target: T2, human amylin receptor; experiment: SPA competition vs 125I-rat amylin, membranes of amylin 3(a) receptor BHK cells (Assay V)
Protocol: The binding assay was performed using scintillation proximity assay (SPA) beads (RPNQ0001) from PerkinElmer and cell membranes from the Amylin 3(a)/CRE-luc cells (as described in Assay (II)) were used. Membranes were prepared in the following way; the cells were rinsed with PBS and incubated with Versene for approximately 5 min before harvesting. The cells were flushed with PBS and the cell-suspension was centrifuged for 5 min at 1000 rpm. Cells were homogenized (ultrathurrax) in a buffer containing 20 mM Na-HEPES and 10 mM EDTA (pH 7.4) and centrifuged at 20.000 rpm for 15 min. The resulting pellet was resuspended, homogenized and centrifuged (20.000 rpm, 15 min) in a buffer containing 20 mM Na-HEPES and 0.1 mM EDTA (pH 7.4, buffer 2). The resulting pellet was resuspended in buffer 2 and protein concentration was measured (BCA protein Assay, Pierce). The homogenate was kept cold during the whole procedure. The membranes were kept at −80° C. until use. The assay was performed in a 384 well Optiplate (PerkinElmer) in a total volume of 40 ul. Membranes were mixed with SPA beads. Final concentration of membranes 35 ng/μL final and SPA beads was 0.05 mg/well. Test-compounds were dissolved in DMSO and further diluted in assay buffer (50 mM Hepes, pH 7.4, 1 mM CaCl2, 5 mM MgCl₂, 0.1% OA and 0.02% Tween20). […] The final mixture was incubated with shaking at 400 rpm for 120 min at 25° C. prior to centrifugation (1500 rpm, 10 min). Samples were analyzed on TopCounter™ (Packard). The IC₅₀ was calculated using (one site binding competition analysis) GraphPad Prism5 as a measure of receptor affinity.

Binder | IC50
{C20 diacid-γGlu-γGlu}-KCNTATCATQRLAEFLRHSSPNFGAIPSSTNVGSNTY-NH2 (disulfide 2-7; SMILES CC[C@H](C)[C@H](NC(=O)[C@H](C)NC(=O)CNC(=O)[C@H](Cc1ccccc1)NC(=O)[C@H](CC(N)=O)NC(=O)[C@@H]1CCCN1C(=O)[C@H](CO)NC(=O)[C@H](CO)NC(=O)[C@H](Cc1c[nH]cn1)NC(=O)[C@H](CCCNC(=N)N)NC(=O)[C@H](CC(C)C)NC(=O)[C@H](Cc1ccccc1)NC(=O)[C@H](CCC(=O)O)NC(=O)[C@H](C)NC(=O)[C@H](CC(C)C)NC(=O)[C@H](CCCNC(=N)N)NC(=O)[C@H](CCC(N)=O)NC(=O)[C@@H](NC(=O)[C@H](C)NC(=O)[C@@H]1CSSC[C@H](NC(=O)[C@H](CCCCN)NC(=O)CC[C@H](NC(=O)CC[C@H](NC(=O)CCCCCCCCCCCCCCCCCCC(=O)O)C(=O)O)C(=O)O)C(=O)N[C@@H](CC(N)=O)C(=O)N[C@@H]([C@@H](C)O)C(=O)N[C@@H](C)C(=O)N[C@@H]([C@@H](C)O)C(=O)N1)[C@@H](C)O)C(=O)N1CCC[C@H]1C(=O)N[C@@H](CO)C(=O)N[C@@H](CO)C(=O)N[C@H](C(=O)N[C@@H](CC(N)=O)C(=O)N[C@H](C(=O)NCC(=O)N[C@@H](CO)C(=O)N[C@@H](CC(N)=O)C(=O)N[C@H](C(=O)N[C@@H](Cc1ccc(O)cc1)C(N)=O)[C@@H](C)O)C(C)C)[C@@H](C)O, also called compound 15) | 597 pM
KCNTATCATQRLANFLRHSSPNFGAIPSSTNVGHNTY (C20 diacid-gGlu on alpha amino group of the N-terminal residue; Cys2-Cys7 disulfide and C-terminal amide as in h-amylin, also called compound 40) [N^α1-[(4S)-4-carboxy-4-(19-carboxynonadecanoylamino)butanoyl]-[Arg17,Pro21,Pro27,His34]-h-amylin] | 549 pM
KCNTATCATQRLAEFLRHSSPNFGAIPSSTNVGSNTY (C20 diacid-gGlu-2xOEG on alpha amino group of the N-terminal residue; Cys2-Cys7 disulfide and C-terminal amide as in h-amylin, also called compound 19) | 556 pM
KCNTATCATQRLANFLRHSSPNFGAIPSSTNVGRNTY (C20 diacid-gGlu on alpha amino group of the N-terminal residue; Cys2-Cys7 disulfide and C-terminal amide as in h-amylin, also called compound 39) [N^α1-[(4S)-4-carboxy-4-(19-carboxynonadecanoylamino)butanoyl]-[Arg17,Pro21,Pro27,Arg34]-h-amylin] | 665 pM
KCNTATCATQRLANFLRHSSPNFGAIPSSTNVGSETY (C20 diacid-gGlu on alpha amino group of the N-terminal residue; Cys2-Cys7 disulfide and C-terminal amide as in h-amylin, also called compound 23) [N^α1-[(4S)-4-carboxy-4-(19-carboxynonadecanoylamino)butanoyl]-[Arg17,Pro21,Pro27,Glu35]-h-amylin] | 871 pM
